{"source": "paper PMC10393992", "about": "(Nature Communications, 2023)", "target": "the molecule itself", "assay": "SEC; Superdex 75 10/300 GL; 20 mM NaCl, 25 mM HEPES, 0.2 mM 2-mercaptoethanol; size from a calibration curve of marker proteins", "data": [{"protein": "His-CIP4-HR1 (domain or fragment, Mus musculus, UniProt Q8CJ53-3 339-425, looked up, CIP4, Mus musculus, HR1, a.a; 339-425; numbers count on: UniProt Q8CJ53-3; also called homology region 1 of CIP4; source: E. coli BL21-CodonPlus (DE3)-RIL, purified (Ni-NTA agarose, dialysis)) PPEQQRKRLQQQLEERNRELQKEEDQREALKKMKDVYEKTPQMGDPASLEPRIAETLGNIERLKLEVQKYEAWLAEAESRVLSNRGD", "values": [{"measurement": "stoichiometry N", "value": 2}]}]}
